Laboratory results taken from patent US20250011422A1 (UNIVERSITY OF FLORIDA RESEARCH FOUNDATION, published 2025).
Like-named read-outs stand apart in the source and are kept apart here.

How the values were obtained:
Siglec-9 [1] = target: T1, Siglec-9 (Homo sapiens, UniProt Q9Y336); experiment: ELISA, siglec-Fc fusion protein coated directly (50 ng), anti-human F(ab')2-HRP detection, absorbance 405-570 nm
T1 construct: Fc fusion protein; member of the siglec panel (group m8); also called human Siglec-9-Fc fusion protein
T1 sequence (Q9Y336 18-348 limits assumed): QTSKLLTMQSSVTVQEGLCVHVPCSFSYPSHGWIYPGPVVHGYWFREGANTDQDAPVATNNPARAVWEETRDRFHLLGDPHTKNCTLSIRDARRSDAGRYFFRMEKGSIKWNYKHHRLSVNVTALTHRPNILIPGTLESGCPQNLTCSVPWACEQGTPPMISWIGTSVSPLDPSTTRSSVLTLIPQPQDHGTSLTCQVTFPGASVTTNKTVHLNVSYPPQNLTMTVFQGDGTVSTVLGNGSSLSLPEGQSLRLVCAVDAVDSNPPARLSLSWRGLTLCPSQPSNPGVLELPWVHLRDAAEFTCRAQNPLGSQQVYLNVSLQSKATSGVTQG

[2] = target: T2, rhesus macaque (Macaca mulatta) Siglec-6 Fc fusion protein (human; Macaca mulatta (rhesus macaque), UniProt A0A1D5QH63 16-333); experiment: as above
T2 construct: range 16-333; it is not the assay construct; also called rhesus Siglec-6; macaque Siglec-6; not shown: human IgG1 Fc, aa 99-329
T2 sequence (A0A1D5QH63 entry or part of it): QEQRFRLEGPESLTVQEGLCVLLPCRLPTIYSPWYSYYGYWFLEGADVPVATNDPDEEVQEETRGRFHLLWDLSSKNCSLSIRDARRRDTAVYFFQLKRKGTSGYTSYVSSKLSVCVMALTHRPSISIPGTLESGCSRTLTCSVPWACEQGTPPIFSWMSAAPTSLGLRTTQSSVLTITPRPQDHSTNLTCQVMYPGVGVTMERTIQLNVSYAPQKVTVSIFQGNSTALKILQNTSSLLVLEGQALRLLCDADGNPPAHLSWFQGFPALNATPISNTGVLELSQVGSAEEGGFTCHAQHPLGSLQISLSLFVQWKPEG

human CD33 (Siglec-3) = human CD33 (Siglec-3) (human, UniProt P20138 18-259, limits assumed); experiment: ELISA, siglec-Fc fusion protein coated directly, anti-human Fab detection, absorbance 405-570 nm
Chain of human CD33 (Siglec-3) (P20138 18-259 limits assumed): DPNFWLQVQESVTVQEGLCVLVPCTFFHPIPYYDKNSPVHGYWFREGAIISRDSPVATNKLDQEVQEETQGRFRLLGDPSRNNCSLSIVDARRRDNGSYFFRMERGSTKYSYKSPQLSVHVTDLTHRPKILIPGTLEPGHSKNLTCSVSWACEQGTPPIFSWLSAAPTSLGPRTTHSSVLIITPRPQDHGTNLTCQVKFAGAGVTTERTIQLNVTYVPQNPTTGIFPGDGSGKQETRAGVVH

Siglec-8 = target: T3, Siglec-8 (Homo sapiens, UniProt Q9NYZ4); experiment: as above
T3 construct: Fc fusion protein; member of the siglec panel (group m8); also called human Siglec-8-Fc fusion protein
T3 sequence (Q9NYZ4 17-363 limits assumed): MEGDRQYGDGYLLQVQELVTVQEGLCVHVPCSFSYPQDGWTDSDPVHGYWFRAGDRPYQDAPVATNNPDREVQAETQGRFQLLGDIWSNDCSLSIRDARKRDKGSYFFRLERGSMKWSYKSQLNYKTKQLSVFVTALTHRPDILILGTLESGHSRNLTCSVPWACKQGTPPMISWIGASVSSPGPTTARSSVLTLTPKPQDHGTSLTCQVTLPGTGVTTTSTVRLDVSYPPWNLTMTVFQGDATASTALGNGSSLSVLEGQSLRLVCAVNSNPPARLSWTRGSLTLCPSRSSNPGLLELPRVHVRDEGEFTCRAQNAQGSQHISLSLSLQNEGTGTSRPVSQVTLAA

Siglec-2 (CD22) = target: T4, Siglec-2 (CD22) (Homo sapiens, UniProt P20273); experiment: as above
T4 construct: Fc fusion protein; member of the siglec panel (group m8); also called human Siglec-2-Fc fusion protein

[3] = target: T5, recombinant human Siglec-6 human IgG1-Fc fusion protein (human, UniProt O43699 27-347); experiment: SPR, Siglec-6-Fc captured, soluble Fab injected
T5 construct: range 27-347; The methods describe the in-house construct as the Siglec-6 ectodomain at the C-terminus of the Fc (Fc-Siglec-6); The text uses hS6-Fc, Siglec-6-Fc and Fc-Siglec-6 for the SPR and ELISA antigen without telling the orientations apart; also called hS6-Fc; Fc-hS6; not shown: human IgG1 Fc, aa 99-329
T5 sequence (O43699 27-347 limits assumed): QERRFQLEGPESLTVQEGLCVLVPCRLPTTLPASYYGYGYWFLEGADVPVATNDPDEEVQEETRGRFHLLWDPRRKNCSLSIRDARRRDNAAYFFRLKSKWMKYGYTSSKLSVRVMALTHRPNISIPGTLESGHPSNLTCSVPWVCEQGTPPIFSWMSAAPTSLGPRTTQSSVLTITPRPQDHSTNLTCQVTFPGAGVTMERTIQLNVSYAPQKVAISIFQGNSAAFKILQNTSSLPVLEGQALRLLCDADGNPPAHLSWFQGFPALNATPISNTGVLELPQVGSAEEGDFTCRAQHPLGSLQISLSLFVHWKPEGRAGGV

[4] = target: T5, recombinant human Siglec-6 human …; experiment: SPR, immobilized hS6-Fc, soluble Fab
Method: (§1) Fab kinetics were determined by capturing Siglec-6-Fc (5-10 μg/mL) in HBS-EP+ buffer (Cytiva) and injecting titrated. […] Biacore evaluation software was used to calculate kₒₙ, koff, and Kd.

CD3 on human T cells = target: T6, CD3 on human T cells (human, UniProt P07766 23-207); experiment: flow cytometry titration on primary human T cells, Alexa Fluor 647 anti-human Fc secondary antibody, percent biAb+ cells
T6 construct: whole, on cells; CD3 is a complex; also called CD3+ cells
T6 sequence (P07766 23-207): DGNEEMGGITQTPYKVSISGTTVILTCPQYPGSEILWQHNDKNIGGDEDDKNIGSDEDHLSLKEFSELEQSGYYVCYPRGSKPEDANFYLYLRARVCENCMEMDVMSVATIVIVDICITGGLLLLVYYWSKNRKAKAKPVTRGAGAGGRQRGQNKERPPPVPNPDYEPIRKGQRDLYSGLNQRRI
Method: (§2) To determine whether T-biAb format affected the affinity to Siglec-6 or CD3 on the cell surface, T-biAbs were titrated and used to stain cells for flow cytometry (FIG. 17a).
(§3) Flow cytometry: Fabs were used to stain cells at a concentration of 2 μg/mL, unless otherwise noted. […] Samples were analyzed on either an Accuri C6 Plus or a LSRII flow cytometer (both from BD Biosciences).

[5] = target: T7, human Siglec-6 on the cell surface (U937, MEC1-002, MEC1-hS6, primary CLL cells) (human, UniProt O43699 27-453); experiment: cell-based or functional assay
T7 sequence (O43699 27-453): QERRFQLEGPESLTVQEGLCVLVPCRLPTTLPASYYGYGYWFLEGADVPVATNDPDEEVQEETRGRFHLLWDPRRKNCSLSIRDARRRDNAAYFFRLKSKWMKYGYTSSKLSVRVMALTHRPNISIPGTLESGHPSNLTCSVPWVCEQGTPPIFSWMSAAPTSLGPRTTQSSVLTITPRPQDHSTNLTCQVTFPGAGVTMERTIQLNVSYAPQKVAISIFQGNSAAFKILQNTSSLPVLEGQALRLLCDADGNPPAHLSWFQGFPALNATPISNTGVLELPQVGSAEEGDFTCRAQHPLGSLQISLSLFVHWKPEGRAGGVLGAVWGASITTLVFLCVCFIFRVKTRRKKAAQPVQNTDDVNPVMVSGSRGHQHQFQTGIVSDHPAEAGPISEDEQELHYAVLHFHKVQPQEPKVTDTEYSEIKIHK

[6] = target: T7, human Siglec-6 on the cell surface …; experiment: cell-based or functional assay; remark: listed apart in the source
[7] = target: T7, human Siglec-6 on the cell surface …; experiment: flow cytometry titration on MEC1-hS6 cells, apparent Kd; aDART-Fc format, RC-1 clone
Method: as §2, §3

Siglec-6 VC28-235-His6 = target: T8, Siglec-6 VC28-235-His6 (human, UniProt O43699 28-235); experiment: SPR, T-biAb immobilised via the Fc domain, soluble Siglec-6 (aa 28-235-His6) injected
T8 construct: It was deglycosylated with PNGase F for HDX-MS; also called soluble Siglec-6 (aa 28-235-His6); Siglec-6 ectodomain fragment
T8 sequence (O43699 other isoform, or with tags, fused parts or gaps limits assumed): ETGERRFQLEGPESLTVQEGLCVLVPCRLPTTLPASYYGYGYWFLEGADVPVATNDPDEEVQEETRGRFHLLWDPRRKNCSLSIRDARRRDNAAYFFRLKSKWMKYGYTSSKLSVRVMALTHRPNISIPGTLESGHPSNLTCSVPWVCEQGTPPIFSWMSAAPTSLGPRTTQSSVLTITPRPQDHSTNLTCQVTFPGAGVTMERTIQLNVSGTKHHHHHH
Method: as §1

Siglec-9 [8] = target: T1, Siglec-9; experiment: ELISA, siglec-Fc fusion protein coated directly, anti-human Fab detection, absorbance 405-570 nm
[9] = target: T5, recombinant human Siglec-6 human …; experiment: SPR, monovalent Fab on Siglec-6-Fc fusion protein
Method: as §1

[10] = target: T7, human Siglec-6 on the cell surface …; experiment: cell-based or functional assay; remark: listed apart in the source
[11] = target: T7, human Siglec-6 on the cell surface …; experiment: cell-based or functional assay; remark: listed apart in the source
[12] = target: T7, human Siglec-6 on the cell surface …; experiment: flow cytometry titration on MEC1-hS6 cells, apparent Kd; scFv-Fc format, JML-1 clone
Method: as §2, §3

[13] = target: T7, human Siglec-6 on the cell surface …; experiment: flow cytometry of whole PBMC with biotinylated JML-1 IgG1, normalised to an isotype control
Method: as §3

B1: RC-1 Fab (Fab, V domains shown)
VH: EVQLVESGGGLVQPGRSLRLSCAASGFTFSSYGMHWVRQAPGKGLEWVAVISYDGSNKYYADSVKGRFTISRDNSKNTLYLQMNSLRAEDTAVYYCANYGMDVWGKGTTVTVSS
VL: not shown
notes: Human Fab (kappa) from the post-alloHSCT phage library, expressed in E. coli
binding result (Siglec-9 [1]): no binding (tested: 75 ng Fab per well) | binding result [2]: no binding (tested: 75 ng Fab per well) | binding result (human CD33 (Siglec-3)): no binding (tested: 75 ng Fab per well) | binding result (Siglec-8): no binding (tested: 75 ng Fab per well) | binding result (Siglec-2 (CD22)): no binding (tested: 75 ng Fab per well) | T1/2 [3]: 37 min | Kd [4]: 490 pM

B2: RC-1/V9 aDART-Fc (bispecific antibody)
chain 1: not shown
chain 2: DIQMTQSPSSLSASVGDRVTITCRASQDIRNYLNWYQQKPGKAPKLLIYYTSRLESGVPSRFSGSGSGTDYTLTISSLQPEDFATYYCQQGNTLPWTFGQGTKVEIKGGGGSGGGGEVQLVESGGGLVQPGRSLRLSCAASGFTFSSYGMHWVRQAPGKGLEWVAVISYDGSNKYYADSVKGRFTISRDNSKNTLYLQMNSLRAEDTAVYYCANYGMDVWGKGTTVTVSSASTKGKVAACKEKVAALKEKVAALKEKVAALKE
chain 3: DKTHTCPPCPAPEAAGGPSVFLFPPKPKDTLMISRTPEVTCVVVDVSHEDPEVKFNWYVDGVEVHNAKTKPREEQYNSTYRVVSVLTVLHQDWLNGKEYKCKVSNKALGAPIEKTISKAKGQPREPQVCTLPPSRDELTKNQVSLSCAVKGFYPSDIAVEWESNGQPENNYKTTPPVLDSDGSFFLVSKLTVDKSRWQQGNVFSCSVMHEALHNRFTQKSLSLSPGA
notes: Three-chain asymmetric DART-Fc; Chain 1 is RC-1vk-G3SG4-V9vh-ASTK-E-coil-G3-Fc knobs, chain 2 is V9vk-G4SG4-RC-1vh-ASTK-K-coil, and chain 3 is Fc holes; also called Siglec-6xCD3 T-biAb in aDART-Fc format
EC50 (read off the curve) (CD3 on human T cells): ~100 pM | EC50 (read off the curve), NFAT reporter activation with MEC1-002 cells [5]: ~40 pM | directed T cell lysis of CLL cell lines, EC50 [6]: 0.12 pM | fold increase in lysis potency compared to RC-1/V9 scFv-Fc [6]: 25 fold | fold lower lysis EC50 than CD19/V9 scFv-Fc (MEC1-002, E:T 1:30, 48 h) [6]: ~3 fold | fold lower lysis EC50 than RC-1/V9 scFv-Fc (MEC1-002, E:T 1:30, 48 h) [6]: > 10 fold | specific lysis of MEC1-002 cells at E:T 1:30, EC50 [6]: 1.1 pM | specific lysis of primary CLL cells by autologous T cells, day 11, median [6]: 24.9% | Kd [7]: 790 pM | Kd (Siglec-6 VC28-235-His6): 150 pM | koff (Siglec-6 VC28-235-His6): 0.00045 s⁻¹ | kon (Siglec-6 VC28-235-His6): 2.96e+06 M⁻¹ s⁻¹

B3: ARN-1 Fab (Fab, V domains shown)
VH: EVQLVQSGGGVVQPGRSLTLSCAAFGFTFSTYTMHWVRQAPGKGLEWVAVISYDEGFKYYADSVKGRFTISRDISKNTLYLQMNSLRTEDTAVYYCAREASAFDIWGQGTMVTVSS
VL: SYVLTQPPLVSVSPGQTARITCSGENWGQKYASWYQQKPGQSPMLIIYEDTKRPSEIPERFSGSNSGSTVTLTISGTQPMDEADYYCQAWDDSTGGVFGTGTKVTVL
notes: Human Fab from a naive human Fab library
binding result (human CD33 (Siglec-3)): no binding (tested: 75 ng Fab per well) | binding result (Siglec-9 [8]): no binding (tested: 75 ng Fab per well) | binding result (Siglec-8): no binding (tested: 75 ng Fab per well) | binding result (Siglec-2 (CD22)): no binding (tested: 75 ng Fab per well) | Kd [9]: 2630 pM | koff [9]: 0.000268 s⁻¹ | kon [9]: 100000 M⁻¹ s⁻¹

B4: V9/RC-1 sDART-Fc (bispecific antibody)
chain 1: DIQMTQSPSSLSASVGDRVTITCRASQDIRNYLNWYQQKPGKAPKLLIYYTSRLESGVPSRFSGSGSGTDYTLTISSLQPEDFATYYCQQGNTLPWTFGQGTKVEIKGGGSGGGGEVQLVESGGGLVQPGRSLRLSCAASGFTFSSYGMHWVRQAPGKGLEWVAVISYDGSNKYYADSVKGRFTISRDNSKNTLYLQMNSLRAEDTAVYYCANYGMDVWGKGTTVTVSSGCPPCPAPEAAGGPSVFLFPPKPKDTLMISRTPEVTCVVVDVSHEDPEVKFNWYVDGVEVHNAKTKPREEQYNSTYRVVSVLTVLHQDWLNGKEYKCKVSNKALGAPIEKTISKAKGQPREPQVCTLPPSRDELTKNQVSLSCAVKGFYPSDIAVEWESNGQPENNYKTTPPVLDSDGSFFLVSKLTVDKSRWQQGNVFSCSVMHEALHNRFTQKSLSLSPGA
chain 2: not shown
notes: Two-chain symmetric DART-Fc
EC50, lysis of MEC1-hS6 cells by human T cells (E:T 1:1, luciferase) [10]: 0.69 pM | EC50 (read off the curve) (CD3 on human T cells): ~300 pM | Kd (Siglec-6 VC28-235-His6): 70 pM | koff (Siglec-6 VC28-235-His6): 0.0003 s⁻¹ | kon (Siglec-6 VC28-235-His6): 4.14e+06 M⁻¹ s⁻¹

B5: RC-2 Fab (Fab, V domains shown)
VH: EVQLLESGGGVVQPGRSLRLSCAASGFTFSSYGMHWVRQAPGKGLEWVAVISYDGSNKHYADSVKGRFTISRDNSKNTLYLQMNSLRAEDTAVYYCARGGQTIDIWGQGTMVTVSS
VL: not shown
notes: Human Fab (kappa), expressed in E. coli
T1/2 [3]: 27 min | Kd [4]: 2760 pM

B6: JML-1/V9 scFv-Fc (bispecific antibody)
chain 1: not shown
chain 2: EVQLVESGGGLVQPGGSLRLSCAASGYSFTGYTMNWVRQAPGKGLEWVALINPYKGVSTYNQKFKDRFTISVDKSKNTAYLQMNSLRAEDTAVYYCARSGYYGDSDWYFDVWGQGTLVTVSSGGGGSGGGGSGGGGSDIQMTQSPSSLSASVGDRVTITCRASQDIRNYLNWYQQKPGKAPKLLIYYTSRLESGVPSRFSGSGSGTDYTLTISSLQPEDFATYYCQQGNTLPWTFGQGTKVEIKEPKSSDKTHTCPPCPAPELLGGPSVFLFPPKPKDTLMISRTPEVTCVVVDVSHEDPEVKFNWYVDGVEVHNAKTKPREEQYASTYRVVSVLTVLHQDWLNGKEYKCKVSNKALPAPIEKTISKAKGQPREPQVCTLPPSRDELTKNQVSLSCAVKGFYPSDIAVEWESNGQPENNYKTTPPVLDSDGSFFLVSKLTVDKSRWQQGNVFSCSVMHEALHNHYTQKSLSLSPGA
notes: Knobs-into-holes heterodimer of the JML-1 scFv-Fc knob arm and the shared anti-CD3 V9 scFv-Fc hole arm; Both arms carry N297A; also called JML-1 clone T-biAb
EC50 (read off the curve) (CD3 on human T cells): ~70 pM | EC50 (read off the curve), NFAT reporter activation with MEC1-002 cells [11]: ~80 pM | specific lysis of MEC1-hS6 by healthy donor T cells, EC50 [6]: 2.4 pM | specific lysis of primary CLL cells by autologous T cells, day 11, median [6]: 8.8% | Kd [12]: 610 pM

B7: JML-1 biotinylated IgG1 (antibody, V domains shown)
VH: KVQLLESGGGLVQPGRSLRLSCAASGFTFDDYGMHWVRQAPGKGLEWVSGISWNSGSIGYADSVKGRFTISRDNSKNTLYLQMNSLRAEDTAVYYCARGGQTIDIWGQGTMVTVSS
VL: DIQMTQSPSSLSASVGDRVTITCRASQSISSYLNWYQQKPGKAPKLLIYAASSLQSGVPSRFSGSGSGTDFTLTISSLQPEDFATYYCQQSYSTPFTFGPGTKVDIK
modifications: Biotinylated IgG1; the biotin sites are not stated and are not carried in the letters.
binding result [13]: binds
